Results from article PMC8220419.
Values belong to the substance of their own block, whether it stands above or below them.

Tests used:
[1] = target: TGFBIp A546T (residues 45–632) (human) (UniProt Q15582); test: SEC; calibrated SEC, Superdex 200 Increase 10/300 GL in PBS; TGFBIp at 7 μM
[2] = target: TGFBIp R124H (residues 45–632) (human) (UniProt Q15582); test: in-line SEC-SAXS; in-line Superdex Increase 200 3.2/300 in 20 mM Tris, 150 mM NaCl, pH 7.4; ~0.5 to 1 mg/ml; rigid-body modeling
[3] = target: TGFBIp R124H (residues 45–632) (human) (UniProt Q15582); test: SEC; calibrated SEC, Superdex 200 Increase 10/300 GL in PBS; TGFBIp at 7 μM
[4] = target: TGFBIp R555W (residues 45–632) (human) (UniProt Q15582); test: in-line SEC-SAXS; in-line Superdex Increase 200 3.2/300 in 20 mM Tris, 150 mM NaCl, pH 7.4; ~0.5 to 1 mg/ml; rigid-body modeling
[5] = target: TGFBIp R555W (residues 45–632) (human) (UniProt Q15582); test: SEC; calibrated SEC, Superdex 200 Increase 10/300 GL in PBS; TGFBIp at 7 μM
[6] = target: wildtype transforming growth factor-β–induced protein (TGFBIp), residues 45–632 (human) (UniProt Q15582); test: in-line SEC-SAXS; in-line Superdex Increase 200 3.2/300 in 20 mM Tris, 150 mM NaCl, pH 7.4; ~0.5 to 1 mg/ml; rigid-body modeling
[7] = target: wildtype transforming growth factor-β–induced protein (TGFBIp), residues 45–632 (human) (UniProt Q15582); test: SEC; calibrated SEC, Superdex 200 Increase 10/300 GL in PBS; TGFBIp at 7 μM

- stoichiometry N [1]: 2
Substance: TGFBIp A546T (residues 45–632) (from UniProt Q15582 45-632) (domain or fragment)

- stoichiometry N [2]: 2
- stoichiometry N [3]: 2
Substance: TGFBIp R124H (residues 45–632) (from UniProt Q15582 45-632) (domain or fragment)

- stoichiometry N [4]: 2
- stoichiometry N [5]: 2
Substance: TGFBIp R555W (residues 45–632) (from UniProt Q15582 45-632) (domain or fragment)

- stoichiometry N [6]: 2
- stoichiometry N [7]: 2
Substance: wildtype transforming growth factor-β–induced protein (TGFBIp), residues 45–632 (from UniProt Q15582 45-632) (domain or fragment)
